Measurements taken from US7754689B2, “Finger-1 peptide analogs of the TGF-β superfamily” (Wyeth LLC, priority 2006, dated 2010).
Several values for one entry are separate records, joined by “and”; a condition that tells them apart may be missing. Equal values may be shown once.

Assay: BMP solubility screen: A320 turbidity of BMP-12 solutions
Type: physicochemical
Conditions: 50 mM Tris pH 8, 0.5 mg/mL BMP-12
Method: BMP Solubility Screen—A Tecan liquid-handling robot was used to mix a master plate of reagents, 800 μL×1.25 concentration (for each solution; see Tables 2 and 3), each in 50 mM Tris buffer at pH 8. An eight-channel pipettor was used to transfer 80 μL of material from the master plate into a half-area UV microplate, from which A320 was read from each sample to define a blank. A repeat-pipettor was used to add 20 μL of 2.5 mg/mL BMP-12 in 0.1% TFA to make a 0.5 mg/mL solution, which was then agitated at 14000 rpm. The UV absorption (A320) was read and the blank absorption subtracted to determine solubility. The procedure was repeated with a wider range of 2-methyl-2,4-pentanediol (MPD) concentrations and a finer set of salt concentrations (Table 4).

B1: BMP-12: Bone Morphogenic Protein, member of the TGF-β superfamily; tested in solution and immobilized on Sepharose beads as affinity ligand (protein)
chain: TALAGTRTAQGSGGGAGRGHGRRGRSRCSRKPLHVDFKELGWDDWIIAPLDYEAYHCEGLCDFPLRSHLEPTNHAIIQTLLNSMAPDAAPASCCVPARLSPISILYIDAANNVVYKQYEDMVVEACGCR
NaCl 0 M, 1-propanol 0%
  A320 minus blank (turbidity): 1.724
NaCl 0 M, 1-propanol 2.5%
  A320 minus blank (turbidity): 1.848
NaCl 0 M, 1-propanol 5%
  A320 minus blank (turbidity): 2.134
NaCl 0 M, 1-propanol 10%
  A320 minus blank (turbidity): 2.000
NaCl 0 M, 1-propanol 15%
  A320 minus blank (turbidity): 3.172
NaCl 0 M, 1-propanol 25%
  A320 minus blank (turbidity): 1.419
NaCl 0 M, 2-methyl-2,4-pentanediol 2.5%
  A320 minus blank (turbidity): 1.936
NaCl 0 M, 2-methyl-2,4-pentanediol 5%
  A320 minus blank (turbidity): 2.122
NaCl 0 M, 2-methyl-2,4-pentanediol 10%
  A320 minus blank (turbidity): 2.148
NaCl 0 M, 2-methyl-2,4-pentanediol 15%
  A320 minus blank (turbidity): 2.035
NaCl 0 M, 2-methyl-2,4-pentanediol 20%
  A320 minus blank (turbidity): 2.136
NaCl 0 M, 2-methyl-2,4-pentanediol 25%
  A320 minus blank (turbidity): 2.631
NaCl 0.00 M, 2-methyl-2,4-pentanediol 30%
  A320 minus blank (turbidity): 3.443
NaCl 0.00 M, 2-methyl-2,4-pentanediol 35%
  A320 minus blank (turbidity): 3.006
NaCl 0.00 M, 2-methyl-2,4-pentanediol 40%
  A320 minus blank (turbidity): 3.519
NaCl 0.00 M, 2-methyl-2,4-pentanediol 45%
  A320 minus blank (turbidity): 3.308
NaCl 0.05 M, 2-methyl-2,4-pentanediol 25%
  A320 minus blank (turbidity): 1.994
NaCl 0.05 M, 2-methyl-2,4-pentanediol 30%
  A320 minus blank (turbidity): 0.979
NaCl 0.05 M, 2-methyl-2,4-pentanediol 35%
  A320 minus blank (turbidity): 0.376
NaCl 0.05 M, 2-methyl-2,4-pentanediol 40%
  A320 minus blank (turbidity): 0.330
NaCl 0.05 M, 2-methyl-2,4-pentanediol 45%
  A320 minus blank (turbidity): 0.318
NaCl 0.1 M, 1-propanol 0%
  A320 minus blank (turbidity): 1.745
NaCl 0.1 M, 1-propanol 2.5%
  A320 minus blank (turbidity): 2.135
NaCl 0.1 M, 1-propanol 5%
  A320 minus blank (turbidity): 2.212
NaCl 0.1 M, 1-propanol 10%
  A320 minus blank (turbidity): 1.945
NaCl 0.1 M, 1-propanol 15%
  A320 minus blank (turbidity): 3.199
NaCl 0.1 M, 1-propanol 25%
  A320 minus blank (turbidity): 0.104
NaCl 0.1 M, 2-methyl-2,4-pentanediol 2.5%
  A320 minus blank (turbidity): 1.900
NaCl 0.1 M, 2-methyl-2,4-pentanediol 5%
  A320 minus blank (turbidity): 2.338
NaCl 0.1 M, 2-methyl-2,4-pentanediol 10%
  A320 minus blank (turbidity): 2.341
NaCl 0.1 M, 2-methyl-2,4-pentanediol 15%
  A320 minus blank (turbidity): 2.287
NaCl 0.1 M, 2-methyl-2,4-pentanediol 20%
  A320 minus blank (turbidity): 2.573
NaCl 0.1 M, 2-methyl-2,4-pentanediol 25%
  A320 minus blank (turbidity): 0.715 and 0.626
NaCl 0.10 M, 2-methyl-2,4-pentanediol 30%
  A320 minus blank (turbidity): 0.206
NaCl 0.10 M, 2-methyl-2,4-pentanediol 35%
  A320 minus blank (turbidity): 0.150
NaCl 0.10 M, 2-methyl-2,4-pentanediol 40%
  A320 minus blank (turbidity): 0.083
NaCl 0.10 M, 2-methyl-2,4-pentanediol 45%
  A320 minus blank (turbidity): 0.087
NaCl 0.25 M, 1-propanol 0%
  A320 minus blank (turbidity): 1.804
NaCl 0.25 M, 1-propanol 2.5%
  A320 minus blank (turbidity): 2.397
NaCl 0.25 M, 1-propanol 5%
  A320 minus blank (turbidity): 2.300
NaCl 0.25 M, 1-propanol 10%
  A320 minus blank (turbidity): 2.105
NaCl 0.25 M, 1-propanol 15%
  A320 minus blank (turbidity): 1.392
NaCl 0.25 M, 1-propanol 25%
  A320 minus blank (turbidity): 0.022
NaCl 0.25 M, 2-methyl-2,4-pentanediol 2.5%
  A320 minus blank (turbidity): 2.061
NaCl 0.25 M, 2-methyl-2,4-pentanediol 5%
  A320 minus blank (turbidity): 2.399
NaCl 0.25 M, 2-methyl-2,4-pentanediol 10%
  A320 minus blank (turbidity): 2.434
NaCl 0.25 M, 2-methyl-2,4-pentanediol 15%
  A320 minus blank (turbidity): 2.433
NaCl 0.25 M, 2-methyl-2,4-pentanediol 20%
  A320 minus blank (turbidity): 1.006
NaCl 0.25 M, 2-methyl-2,4-pentanediol 30%
  A320 minus blank (turbidity): −0.015
NaCl 0.25 M, 2-methyl-2,4-pentanediol 35%
  A320 minus blank (turbidity): −0.065
NaCl 0.25 M, 2-methyl-2,4-pentanediol 40%
  A320 minus blank (turbidity): 0.015
NaCl 0.25 M, 2-methyl-2,4-pentanediol 45%
  A320 minus blank (turbidity): −0.012
NaCl 0.5 M, 1-propanol 0%
  A320 minus blank (turbidity): 1.953
NaCl 0.5 M, 1-propanol 2.5%
  A320 minus blank (turbidity): 2.170
NaCl 0.5 M, 1-propanol 5%
  A320 minus blank (turbidity): 1.629
NaCl 0.5 M, 1-propanol 10%
  A320 minus blank (turbidity): 1.313
NaCl 0.5 M, 1-propanol 15%
  A320 minus blank (turbidity): 0.305
NaCl 0.5 M, 1-propanol 25%
  A320 minus blank (turbidity): −0.001
NaCl 0.5 M, 2-methyl-2,4-pentanediol 2.5%
  A320 minus blank (turbidity): 2.045
